Literature values as cited in paper PMC3373023.

Legend:
[1] = biological target: Asp42 (UniProt position 63, KRGCADNCPKN)
[2] = biological target: Asp59 (UniProt position 80, VCCSTDKCN--)
[3] = biological target: Glu17 (UniProt position 38, YKTCPEGKNLC)
[4] = biological target: His4 (UniProt position 25, YTLKCHNTQLP)
[5] = biological target: Asp27 (UniProt position 156, PLCGSDNKTYG)
[6] = biological target: Asp7 (UniProt position 136, AAVSVDCSEYP)
[7] = biological target: Glu10 (UniProt position 139, SVDCSEYPKPA)
[8] = biological target: Glu19 (UniProt position 148, PACTLEYRPLC)
[9] = biological target: Glu43 (UniProt position 172, CNAVVESNGTL)
[10] = biological target: His52 (UniProt position 181, TLTLSHFGKC-)
[11] = biological target: Lys13 (UniProt position 142, CSEYPKPACTL)
[12] = biological target: Lys29 (UniProt position 158, CGSDNKTYGNK)
[13] = biological target: Lys34 (UniProt position 163, KTYGNKCNFCN)
[14] = biological target: Lys55 (UniProt position 184, LSHFGKC----)
[15] = biological target: Tyr11 (UniProt position 140, VDCSEYPKPAC)
[16] = biological target: Tyr20 (UniProt position 149, ACTLEYRPLCG)
[17] = biological target: Tyr31 (UniProt position 160, SDNKTYGNKCN)

Cardiotoxin V (CTX A5, cardiotoxin A5) (Naja naja atra (Naja atra, Taiwan cobra))
pKa [1]: 3.2 | pKa [2]: <2.3 | pKa [3]: 4.0 | pKa [4]: 5.6

Turkey ovomucoid third domain (OMTKY3) (Meleagris gallopavo)
pKa [5]: ≤2.3 | pKa [6]: ≤2.7 | pKa [7]: 4.2 | pKa [8]: 3.2 | pKa [9]: 4.8 | pKa [10]: 7.5 | pKa [11]: 9.9 | pKa [12]: 11.1 | pKa [13]: 10.1 | pKa [14]: 11.1 | pKa [15]: 10.2 | pKa [16]: 11.1 | pKa [17]: >12.5
